For this assay, the target named is Rho factor (E. coli transcription termination factor Rho) (E. coli, UniProt P0AG30 1-419). Kind of assay: SEC. In general terms: SEC sorts molecules by how far they enter the pores of the column.
Rho factor (E. coli transcription termination factor Rho), sequence (P0AG30 whole entry): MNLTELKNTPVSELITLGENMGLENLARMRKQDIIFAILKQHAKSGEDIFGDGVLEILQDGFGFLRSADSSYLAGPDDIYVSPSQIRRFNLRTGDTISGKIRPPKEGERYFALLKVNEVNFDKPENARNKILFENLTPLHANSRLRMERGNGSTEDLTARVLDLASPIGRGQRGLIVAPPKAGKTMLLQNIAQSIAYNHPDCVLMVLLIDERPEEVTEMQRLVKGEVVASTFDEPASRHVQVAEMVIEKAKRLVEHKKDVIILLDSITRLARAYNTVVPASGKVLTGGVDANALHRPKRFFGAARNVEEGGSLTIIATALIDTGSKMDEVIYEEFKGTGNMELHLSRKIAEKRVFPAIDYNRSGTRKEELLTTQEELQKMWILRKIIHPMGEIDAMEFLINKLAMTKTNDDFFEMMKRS

B1: Rof (Rho-off, also called YaeO) (natural protein, E. coli)
chain: MNDTYQPINCDDYDNLELACQHHLMLTLELKDGEKLQAKASDLVSRKNVEYLVVEAAGETRELRLDKITSFSHPEIGTVVVSES
For B1, the binding result is “binds”.
